Laboratory results from patent US20080188404.

Chain of hybrid protein DAF-CR1B (chain, as listed by the source): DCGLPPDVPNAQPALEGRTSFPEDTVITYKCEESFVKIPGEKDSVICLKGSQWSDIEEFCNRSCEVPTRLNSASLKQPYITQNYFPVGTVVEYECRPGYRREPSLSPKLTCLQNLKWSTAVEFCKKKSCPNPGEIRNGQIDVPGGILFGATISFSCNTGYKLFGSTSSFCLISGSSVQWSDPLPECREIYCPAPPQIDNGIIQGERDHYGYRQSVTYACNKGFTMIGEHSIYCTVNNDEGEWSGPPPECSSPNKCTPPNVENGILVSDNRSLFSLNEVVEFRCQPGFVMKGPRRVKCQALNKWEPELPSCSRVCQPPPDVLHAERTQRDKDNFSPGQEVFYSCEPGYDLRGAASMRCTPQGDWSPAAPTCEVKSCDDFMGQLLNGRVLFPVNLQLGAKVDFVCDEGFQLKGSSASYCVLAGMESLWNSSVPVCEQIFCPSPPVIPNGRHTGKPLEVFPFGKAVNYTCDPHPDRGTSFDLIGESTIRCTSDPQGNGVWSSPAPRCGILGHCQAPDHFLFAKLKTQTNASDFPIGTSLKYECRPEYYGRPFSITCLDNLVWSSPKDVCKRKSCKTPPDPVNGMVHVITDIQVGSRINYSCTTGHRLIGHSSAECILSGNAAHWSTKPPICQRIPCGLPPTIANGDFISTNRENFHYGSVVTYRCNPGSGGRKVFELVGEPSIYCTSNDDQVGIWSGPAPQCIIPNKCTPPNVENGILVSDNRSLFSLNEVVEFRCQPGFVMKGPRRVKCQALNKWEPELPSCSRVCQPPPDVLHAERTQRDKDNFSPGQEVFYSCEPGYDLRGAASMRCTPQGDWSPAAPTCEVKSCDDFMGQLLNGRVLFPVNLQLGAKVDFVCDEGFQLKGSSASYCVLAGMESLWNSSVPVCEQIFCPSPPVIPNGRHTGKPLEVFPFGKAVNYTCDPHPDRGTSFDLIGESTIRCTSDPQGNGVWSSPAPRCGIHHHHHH
Chain of hybrid protein DAF-MCP (chain, as listed by the source): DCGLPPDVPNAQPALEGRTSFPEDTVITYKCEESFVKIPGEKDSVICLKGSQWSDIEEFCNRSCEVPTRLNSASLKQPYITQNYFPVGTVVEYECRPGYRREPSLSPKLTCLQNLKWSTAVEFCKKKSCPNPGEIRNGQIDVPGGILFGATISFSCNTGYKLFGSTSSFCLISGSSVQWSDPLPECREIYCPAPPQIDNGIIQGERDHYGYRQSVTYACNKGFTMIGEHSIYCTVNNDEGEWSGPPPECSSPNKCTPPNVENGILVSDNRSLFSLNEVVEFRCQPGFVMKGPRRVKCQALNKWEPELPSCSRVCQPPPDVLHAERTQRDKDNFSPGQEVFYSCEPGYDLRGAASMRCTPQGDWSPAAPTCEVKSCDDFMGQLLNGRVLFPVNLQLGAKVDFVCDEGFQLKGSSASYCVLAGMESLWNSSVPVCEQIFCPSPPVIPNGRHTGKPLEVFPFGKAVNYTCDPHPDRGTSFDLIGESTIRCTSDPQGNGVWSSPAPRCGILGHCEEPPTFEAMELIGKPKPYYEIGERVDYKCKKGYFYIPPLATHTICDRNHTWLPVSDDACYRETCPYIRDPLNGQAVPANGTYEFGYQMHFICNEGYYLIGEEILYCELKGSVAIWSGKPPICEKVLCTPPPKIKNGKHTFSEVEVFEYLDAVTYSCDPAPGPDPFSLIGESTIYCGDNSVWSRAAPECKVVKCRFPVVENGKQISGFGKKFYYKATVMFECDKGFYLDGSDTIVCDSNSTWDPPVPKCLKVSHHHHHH

B1: human factor I (protein)
chain: KVTYTSQEDLVEKKCLAKKYTHLSCDKVFCQPWQRCIEGTCVCKLPYQCPKNGTAVCATNRRSFPTYCQQKSLECLHPGTKFLNNGTCTAEGKFSVSLKHGNTDSEGIVEVKLVDQDKTMFICKSSWSMREANVACLDLGFQQGADTQRRFKLSDLSINSTECLHVHCRGLETSLAECTFTKRRTMGYQDFADVVCYTQKADSPMDDFFQCVNGKYISQMKACDGINDCGDQSDELCCKACQGKGFHCKSGVCIPSQYQCNGEVDCITGEDEVGCAGFASVTQEETEILTADMDAERRRIKSLLPKLSCGVKNRMHIRRKRIVGGKRAQLGDLPWQVAIKDASGITCGGIYIGGCWILTAAHCLRASKTHRYQIWTTVVDWIHPDLKRIVIEYVDRIIFHENYNAGTYQNDIALIEMKKDGNKKDCELPRSIPACVPWSPYLFQPNDTCIVSGWGREKDNERVFSLQWGEVKLISNCSKFYGNRFYEKEMECAGTYDGSIDACKGDSGGPLVCMDANNVTYVWGVVSWGENCGKPEFPGVYTKVANYFDWISYHVGRPFISQYNV
For B1, the “cofactor assay: factor I cleavage of C3b, Western blot” value (hybrid protein DAF-CR1B) was “DAF-CR1B acts as cofactor for factor I as shown by the appearance of a band at 29 kDa” and the “cofactor assay: factor I cleavage of C3b, SDS-PAGE and Western blot with anti-human C3 polyclonal antibody” value (hybrid protein DAF-MCP) was “Supernatants with factor I and either DAF-MCP or DAF-CR1BB both exhibited 43 and 40 kDa bands corresponding to formation of iC3b and C3c, respectively”.
